Results as given in publication PMC9892032.
Values joined by “and” are separate entries in the source; they are usually repeats but may differ in a detail not shown here. Equal values may be shown once.

Target: Lake Sinai virus 2 capsid protein, full-length (residues 1–520) (Lake Sinai virus 2)
Assay: cryo-EM structure; purified LSV2 VLPs (30 mg/mL) assembled in vitro in 50 mM HEPES, 300 mM NaCl at pH 6.5, 7.5 or 8.5; T = 4 and T = 3 particles from single datasets, icosahedral and focused refinement

Substance: Lake Sinai virus 2 capsid protein, full-length (residues 1–520) (natural protein)
- stoichiometry N: 240 copies and 180 copies
